Patent US20200239529A1

Biological target: CXCR4 (human) (UniProt P61073)
Experiment: cell-based or functional assay

UniProt P61073, sequence (P61073 whole entry): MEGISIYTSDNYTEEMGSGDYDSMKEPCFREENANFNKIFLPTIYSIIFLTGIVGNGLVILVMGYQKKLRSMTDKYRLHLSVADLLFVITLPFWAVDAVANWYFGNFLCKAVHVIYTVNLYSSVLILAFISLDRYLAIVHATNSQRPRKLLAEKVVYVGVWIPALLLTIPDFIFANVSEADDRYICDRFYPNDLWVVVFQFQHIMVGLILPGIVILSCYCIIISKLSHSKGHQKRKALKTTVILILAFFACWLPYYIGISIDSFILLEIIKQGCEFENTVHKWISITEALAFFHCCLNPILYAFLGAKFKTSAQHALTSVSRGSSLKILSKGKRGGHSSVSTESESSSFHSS

## T22-DITOX-H6 (from UniProt P00587 26-411)
  IC50 of killing cultured HeLa cells: 0.78 nM

## T22-PE24-H6
  IC50 of killing cultured HeLa cells: 0.99 nM
